Numbering of substitutions follows the chain as printed. Like-named read-outs stand apart in the source and are kept apart here.
B1: G151'C/C150'G 17mer (ssDNA)
DNA: TTTCGGTGGGGTGTGGT
B2: WT Hairpin (structured_DNA)
DNA: GCAAAAACTTGTTTTTGCGTGGGGTGTGGT
B3: G167'C/C166'G Hairpin (structured_DNA)
DNA: B2 DNA with G1C, C2G
B4: WT 17mer (ssDNA)
DNA: TTTGCGTGGGGTGTGGT
B5: G167'C/C166'G/G151'C/C150'G Hairpin (structured_DNA)
DNA: CGAAAAACTTGTTTTTCGGTGGGGTGTGGT
B6: G144'C 17mer (ssDNA)
DNA: TTTGCGTGGGCTGTGGT
B7: G151'C/C150'G Hairpin (structured_DNA)
DNA: B5 DNA with C1G, G2C
B8: No Hairpin (ssDNA)
DNA: CGTTTTTGTTGTTTTTGCGTGGGGTGTGGT

How the values were obtained:
[1] = target: T1, TraI36 (F TraI relaxase domain) (Escherichia coli F plasmid (F factor), UniProt P14565 1-330); experiment: fluorescence anisotropy and intensity
T1 sequence: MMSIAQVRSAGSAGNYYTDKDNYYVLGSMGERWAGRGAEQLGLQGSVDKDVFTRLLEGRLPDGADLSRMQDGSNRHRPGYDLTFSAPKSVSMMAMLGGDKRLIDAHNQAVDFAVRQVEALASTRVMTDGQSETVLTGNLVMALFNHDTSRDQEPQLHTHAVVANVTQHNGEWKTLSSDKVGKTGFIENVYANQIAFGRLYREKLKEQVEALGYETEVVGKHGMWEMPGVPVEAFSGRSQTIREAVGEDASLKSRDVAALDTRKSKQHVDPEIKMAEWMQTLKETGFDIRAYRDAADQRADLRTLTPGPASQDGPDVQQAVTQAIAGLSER

[2] = target: T1, TraI36 (F TraI relaxase domain); experiment: fluorescence anisotropy and intensity; remark: listed apart in the source
[3] = target: T1, TraI36 (F TraI relaxase domain); experiment: competition
[4] = target: T1, TraI36 (F TraI relaxase domain); experiment: fluorescence dissociation kinetics

| Binder | Kd [1] | other results |
| --- | --- | --- |
| B1 | 390 ± 9 nM |  |
| B2 |  | Kd [2]: 6.8 ± 1.2 nM |
| B3 |  | Kd [2]: 12 ± 1.8 nM |
| B4 | 39 ± 0.8 nM |  |
| B5 | 78 ± 2 nM |  |
| B6 |  | binding result [3]: no binding |
| B7 |  | binding result [4]: binds |
| B8 | 16 ± 1 nM |  |

Source: article PMC1331984
